Read-outs that look alike come from different tables or passages of the source.
Legend:
RecJ (native wild-type) [1] = target: T1, RecJ (native wild-type) (Escherichia coli, UniProt P21893 1-577); assay: EMSA
T1 sequence: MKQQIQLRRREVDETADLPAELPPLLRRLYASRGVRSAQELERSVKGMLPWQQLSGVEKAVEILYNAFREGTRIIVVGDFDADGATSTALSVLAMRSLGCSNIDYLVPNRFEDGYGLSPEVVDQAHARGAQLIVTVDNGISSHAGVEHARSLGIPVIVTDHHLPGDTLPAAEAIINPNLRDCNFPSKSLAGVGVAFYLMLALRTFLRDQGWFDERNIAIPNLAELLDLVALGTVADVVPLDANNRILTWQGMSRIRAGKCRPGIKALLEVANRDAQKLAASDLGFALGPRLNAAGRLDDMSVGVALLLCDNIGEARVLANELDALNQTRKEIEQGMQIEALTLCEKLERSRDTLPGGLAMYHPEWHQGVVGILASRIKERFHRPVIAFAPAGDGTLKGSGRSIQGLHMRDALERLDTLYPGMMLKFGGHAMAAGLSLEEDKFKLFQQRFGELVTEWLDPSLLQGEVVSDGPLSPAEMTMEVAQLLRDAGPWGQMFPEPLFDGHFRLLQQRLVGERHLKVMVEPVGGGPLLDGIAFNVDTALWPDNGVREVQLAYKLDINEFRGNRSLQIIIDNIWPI

RecJ (native wild-type) [2] = target: T1, RecJ (native wild-type); assay: EMSA; remark: listed apart in the source
SSB = SSB (UniProt P0AGE0 2-178); assay: EMSA
RecJf (MBP-RecJ fusion) = target: T2, RecJf (MBP-RecJ fusion) (UniProt P21893 1-577); assay: EMSA
T2 sequence: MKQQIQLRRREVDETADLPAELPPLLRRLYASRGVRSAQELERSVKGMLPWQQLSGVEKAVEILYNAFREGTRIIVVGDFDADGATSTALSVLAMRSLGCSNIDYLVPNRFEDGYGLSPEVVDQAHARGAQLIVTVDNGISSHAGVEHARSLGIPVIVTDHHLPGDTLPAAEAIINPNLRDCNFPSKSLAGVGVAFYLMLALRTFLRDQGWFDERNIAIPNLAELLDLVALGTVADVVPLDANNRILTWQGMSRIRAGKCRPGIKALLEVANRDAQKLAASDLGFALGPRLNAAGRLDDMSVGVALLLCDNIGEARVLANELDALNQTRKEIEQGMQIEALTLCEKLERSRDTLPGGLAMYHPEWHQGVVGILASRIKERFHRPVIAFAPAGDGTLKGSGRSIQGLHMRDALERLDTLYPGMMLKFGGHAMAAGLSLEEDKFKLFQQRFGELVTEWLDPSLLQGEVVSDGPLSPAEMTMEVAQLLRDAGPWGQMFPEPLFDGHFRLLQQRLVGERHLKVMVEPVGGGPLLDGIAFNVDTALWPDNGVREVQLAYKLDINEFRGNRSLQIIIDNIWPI

[3] = target: RecJ (native wild-type);SSB (Escherichia coli;Escherichia coli?, UniProt P21893;P0AGE0 1-577;2-178, |); assay: EMSA, supershift
RecJ (native wild-type) [4] = target: T1, RecJ (native wild-type); assay: EMSA; remark: listed apart in the source
RecJ (native wild-type) [5] = target: T1, RecJ (native wild-type); assay: EMSA; remark: listed apart in the source

RecJ (native wild-type);SSB, sequence (P0AGE0 2-178, one chain of several): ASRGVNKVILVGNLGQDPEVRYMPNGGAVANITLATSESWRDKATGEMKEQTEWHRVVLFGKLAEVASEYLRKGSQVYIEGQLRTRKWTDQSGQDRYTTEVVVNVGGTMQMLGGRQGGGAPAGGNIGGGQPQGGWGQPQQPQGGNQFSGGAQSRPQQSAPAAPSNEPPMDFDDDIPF
SSB, sequence (P0AGE0 2-178): as the sequence (P0AGE0 2-178, one chain of several) above

B1: A/C 10 nt 5' tail (dsDNA)
DNA 1: GCCCAGGTGGCAGGCCCTAGGGTGGAGGGGAGGCCGCCGGCATGGGGACGCGATGGGCGGAGGCG
DNA 2: CGCCTCCGCCCATCGCGTCCCCATGCCGGCGGCCTCCCCTCCACCCTAGGGCCTG
modifications: 5' phosphate on A from labeling
For B1, the Kd (RecJ (native wild-type) [1]) was 9.5 nM.

B2: A 9 nt 5' tail (dsDNA)
DNA 1: GCCCAGGTGGCAGGCCCTAGGGTGGAGGGGAGGCCGCCGGCATGGGGACGCGATGGGCGGAGGCG
DNA 2: CGCCTCCGCCCATCGCGTCCCCATGCCGGCGGCCTCCCCTCCACCCTAGGGCCTGC
modifications: 5' phosphate on A from labeling
B2: binds (RecJ (native wild-type) [2]).

B3: oligonucleotide A (65mer) (ssDNA)
DNA: GCCCAGGTGGCAGGCCCTAGGGTGGAGGGGAGGCCGCCGGCATGGGGACGCGATGGGCGGAGGCG
modifications: 5' phosphate from labeling
B3: binds (SSB); binds (RecJf (MBP-RecJ fusion)); binds [3]. B3: binds (RecJ (native wild-type) [4]).

B4: A 7 nt 5' tail (dsDNA)
DNA 1: GCCCAGGTGGCAGGCCCTAGGGTGGAGGGGAGGCCGCCGGCATGGGGACGCGATGGGCGGAGGCG
DNA 2: CGCCTCCGCCCATCGCGTCCCCATGCCGGCGGCCTCCCCTCCACCCTAGGGCCTGCCA
modifications: 5' phosphate on A from labeling
B4: binds (RecJ (native wild-type) [2]).

B5: A/E 65 bp duplex (dsDNA)
DNA 1: GCCCAGGTGGCAGGCCCTAGGGTGGAGGGGAGGCCGCCGGCATGGGGACGCGATGGGCGGAGGCG
DNA 2: CGCCTCCGCCCATCGCGTCCCCATGCCGGCGGCCTCCCCTCCACCCTAGGGCCTGCCACCTGGGC
modifications: 5' phosphate on A from labeling
B5: no binding (RecJ (native wild-type) [5]).

B6: A/B 20 nt 5' tail (dsDNA)
DNA 1: GCCCAGGTGGCAGGCCCTAGGGTGGAGGGGAGGCCGCCGGCATGGGGACGCGATGGGCGGAGGCG
DNA 2: CGCCTCCGCCCATCGCGTCCCCATGCCGGCGGCCTCCCCTCCACC
modifications: 5' phosphate on A from labeling
B6 showed a Kd (RecJ (native wild-type) [1]) of 33 nM.

B7: A 5 nt 5' tail (dsDNA)
DNA 1: GCCCAGGTGGCAGGCCCTAGGGTGGAGGGGAGGCCGCCGGCATGGGGACGCGATGGGCGGAGGCG
DNA 2: CGCCTCCGCCCATCGCGTCCCCATGCCGGCGGCCTCCCCTCCACCCTAGGGCCTGCCACC
modifications: 5' phosphate on A from labeling
B7: no binding (RecJ (native wild-type) [2]).

B8: A/D 4 nt 5' tail (dsDNA)
DNA 1: GCCCAGGTGGCAGGCCCTAGGGTGGAGGGGAGGCCGCCGGCATGGGGACGCGATGGGCGGAGGCG
DNA 2: CGCCTCCGCCCATCGCGTCCCCATGCCGGCGGCCTCCCCTCCACCCTAGGGCCTGCCACCT
modifications: 5' phosphate on A from labeling
B8: no binding (RecJ (native wild-type) [5]).

B9: A 8 nt 5' tail (dsDNA)
DNA 1: GCCCAGGTGGCAGGCCCTAGGGTGGAGGGGAGGCCGCCGGCATGGGGACGCGATGGGCGGAGGCG
DNA 2: CGCCTCCGCCCATCGCGTCCCCATGCCGGCGGCCTCCCCTCCACCCTAGGGCCTGCC
modifications: 5' phosphate on A from labeling
B9: binds (RecJ (native wild-type) [2]).
